# Source: article PMC3531475
# Key:
# [1] = target: T1, adiponectin receptor type 1 (AdipoR1) (human (endogenous in SH-SY5Y)) (UniProt Q96A54)
# T1 sequence: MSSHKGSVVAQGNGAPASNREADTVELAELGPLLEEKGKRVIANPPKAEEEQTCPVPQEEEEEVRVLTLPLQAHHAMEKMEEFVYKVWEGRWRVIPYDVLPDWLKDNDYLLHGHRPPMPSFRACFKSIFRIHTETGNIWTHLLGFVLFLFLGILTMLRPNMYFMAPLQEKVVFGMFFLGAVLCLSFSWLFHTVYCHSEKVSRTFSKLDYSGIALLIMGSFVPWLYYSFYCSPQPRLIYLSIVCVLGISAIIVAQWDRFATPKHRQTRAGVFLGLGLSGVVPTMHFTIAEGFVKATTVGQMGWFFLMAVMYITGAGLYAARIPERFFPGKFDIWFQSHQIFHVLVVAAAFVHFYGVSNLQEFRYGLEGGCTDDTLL
# [2] = target: T2, adiponectin receptor type 2 (AdipoR2) (human (endogenous in SH-SY5Y)) (UniProt Q86V24)
# T2 sequence: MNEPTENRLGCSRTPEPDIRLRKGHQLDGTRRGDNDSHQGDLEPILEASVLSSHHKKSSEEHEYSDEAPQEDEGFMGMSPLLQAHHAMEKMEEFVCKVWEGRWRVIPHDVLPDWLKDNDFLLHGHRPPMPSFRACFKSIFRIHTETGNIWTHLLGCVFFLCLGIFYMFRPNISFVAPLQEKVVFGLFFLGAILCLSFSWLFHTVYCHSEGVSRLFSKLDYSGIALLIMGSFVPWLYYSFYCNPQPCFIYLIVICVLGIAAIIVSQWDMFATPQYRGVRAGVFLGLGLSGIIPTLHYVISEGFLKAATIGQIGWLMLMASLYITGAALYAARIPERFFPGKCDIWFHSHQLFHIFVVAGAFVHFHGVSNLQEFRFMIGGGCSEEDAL
substance,measurement,setting,value
Mouse recombinant adiponectin (from UniProt Q60994 18-247) (ligand),"cytotoxicity (LDH release, fold of untreated) of Sw-APP transfected SH-SY5Y cells under H2O2 (200-800 µM), with adiponectin 10 µg/ml for 2 hours beforehand; most marked at 400 µM H2O2 (fold cytotoxicity)",[1],2.7
same,"cytotoxicity (LDH release, fold of untreated) of Sw-APP transfected SH-SY5Y cells under H2O2 (200-800 µM), with adiponectin 10 µg/ml for 2 hours beforehand; most marked at 400 µM H2O2 (fold cytotoxicity)",[2],2.7
